Test results from patent US20210079109A1 (Regeneron, published 2021).

T1: human CD63 (human, UniProt P08962 2-238)
T1 construct: stably transfected in NIH3T3/hCD63; The cell line is named under assay; also called hCD63
T1 sequence: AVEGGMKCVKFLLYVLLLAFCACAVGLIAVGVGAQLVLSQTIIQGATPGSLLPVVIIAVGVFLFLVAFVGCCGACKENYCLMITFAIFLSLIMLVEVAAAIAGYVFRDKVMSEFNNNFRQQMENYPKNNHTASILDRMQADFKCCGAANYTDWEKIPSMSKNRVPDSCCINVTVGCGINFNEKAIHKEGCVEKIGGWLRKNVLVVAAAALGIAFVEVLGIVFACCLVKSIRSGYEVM


Key:
[1] = target: T1, human CD63; assay: ECL, NIH3T3/hCD63 cells
Method: (§1) LNCAP cells were determined to have a lower human CD63 copy number than U87MG cells. Non-transfected NIH3T3 cells, which have no detectable expression of human CD63 by fluorescence activated cell sorting (FACS), were included as a negative control.
(§2) Briefly, cell lines were rinsed once in PBS buffer without Ca²⁺/Mg²⁺ and incubated for 10 minutes at 37° C. with Enzyme Free Cell Dissociation Solution (Millipore, Cat #S-004-C) to detach the cells. Cells were then washed once with PBS with Ca²⁺/Mg²⁺ and counted with a Cellometer™ Auto T4 cell counter (Nexcelom Bioscience, LLC). Approximately 2.0×10⁴ NIH3T3/hCD63, LNCAP, U87MG or NIH3T3 cells were seeded separately onto 96-well carbon electrode plates […]) and were then incubated for one hour at 37° C. Nonspecific binding sites were blocked with 2% BSA (w/v) in PBS with Ca²⁺/Mg²⁺ for one hour at room temperature (RT). Solutions containing anti-CD63 antibodies or isotype control antibodies at a range of concentrations (1.7 pM to 100 nM) in 0.5% BSA (w/v) in PBS with Ca²⁺/Mg²⁺, as well as control buffer alone, were then added in duplicate to the plate-bound NIH3T3/hCD63, LNCAP, U87MG or NIH3T3 cells and incubated for one hour at RT. Plates were subsequently washed to remove unbound antibodies using an AquaMax2000 plate washer with a cell washing head (MDS Analytical Technologies). […] Plates were washed and then incubated with Read Buffer (MSD, Cat #R92TD-2) according to the manufacturer's instructions. Luminescent signals were measured using a SECTOR Imager (MSD).

[2] = target: T2, recombinant human CD63 extracellular loop 2 expressed with a C-terminal Myc-Myc-hexahistidine (human); assay: SPR Biacore, mAb captured, 25C
T2 construct: also called hCD63 EC loop 2-MMH; human CD63 EC loop 2-MMH
Method: (§3) Equilibrium dissociation constants (KD) for different CD63 (EC2) loop reagents binding to purified anti-CD63 monoclonal antibodies were determined using a real-time surface plasmon resonance based Biacore T200 biosensor or Biacore 2000 biosensor. All binding studies were performed in 10 mM HEPES, 150 mM NaCl, 3 mM EDTA, and 0.05% v/v Surfactant Tween-20, pH 7.4 (HBS-ET) running buffer at 25° C. and 37° C. The Biacore CMS sensor chip surface was first derivatized by amine coupling with either a rabbit anti-mouse Fc specific polyclonal antibody (GE Healthcare, Cat #BR100838) or an anti-human Fab kit (GE Healthcare, Cat #28958325) to capture anti-CD63 monoclonal antibodies. […] The association rate (Kₐ) and dissociation rate (kd) were determined by fitting the real-time binding sensorgrams to a 1:1 binding model with mass transport limitation using Scrubber 2.0c curve-fitting software. Binding dissociation equilibrium constant (KD) and dissociative half-life (t½) were calculated from the kinetic rates as: […]
(§4) Binding kinetics parameters for human CD63 EC loop 2 protein binding to different anti-CD63 monoclonal antibodies of the invention at 25° C. and 37° C. are shown in Tables 6 through 9.

[3] = target: T3, recombinant human CD63 extracellular loop 2 expressed with a C-terminal human Fc tag (human); assay: SPR Biacore, mAb captured, 25C
T3 construct: also called hCD63 EC loop 2-hFc; human CD63 EC loop 2-Fc
Method: as §3, §4

[4] = target: T1, human CD63; assay: ECL, LNCAP cells
Method: as §1, §2

[5] = target: T2, recombinant human CD63 extracellular …; assay: SPR Biacore, mAb captured, 37C
Method: as §3, §4

[6] = target: T3, recombinant human CD63 extracellular …; assay: SPR Biacore, mAb captured, 37C
Method: as §3, §4

[7] = target: T1, human CD63; assay: ECL, U87MG cells
Method: as §1, §2

T3 sequence (chain, as listed by the source limits assumed): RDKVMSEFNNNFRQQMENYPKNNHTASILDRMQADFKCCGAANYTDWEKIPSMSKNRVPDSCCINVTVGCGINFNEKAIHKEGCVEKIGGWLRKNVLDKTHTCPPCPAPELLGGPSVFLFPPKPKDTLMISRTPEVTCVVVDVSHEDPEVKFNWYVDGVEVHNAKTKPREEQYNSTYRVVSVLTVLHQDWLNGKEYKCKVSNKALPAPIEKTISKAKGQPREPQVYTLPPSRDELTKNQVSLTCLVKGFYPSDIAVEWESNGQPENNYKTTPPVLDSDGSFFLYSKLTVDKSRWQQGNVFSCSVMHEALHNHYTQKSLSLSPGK
T2 sequence (chain, as listed by the source limits assumed): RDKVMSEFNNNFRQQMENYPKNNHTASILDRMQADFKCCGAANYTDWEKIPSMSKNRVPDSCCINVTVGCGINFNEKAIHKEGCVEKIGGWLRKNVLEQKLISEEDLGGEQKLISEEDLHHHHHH

EC50 [1]	binding ratio at 3.7 nM vs NIH3T3 [1]	100 nM Ag Bound (RU) [2]	Kd [2]	koff [2]	kon [2]	t1/2 [2]	100 nM Ag Bound (RU) [3]	Kd [3]	koff [3]	kon [3]	t1/2 [3]	EC50 [4]	binding ratio at 3.7 nM vs NIH3T3 [4]	100 nM Ag Bound (RU) [5]	Kd [5]	koff [5]	kon [5]	EC50 [7]	binding ratio at 3.7 nM vs NIH3T3 [7]	Binder	other results
0.52 nM	220 fold	65 RU	0.676 nM	0.000365 s⁻¹	540000 M⁻¹ s⁻¹	32 min	160 RU	0.173 nM	0.000113 s⁻¹	654000 M⁻¹ s⁻¹	102 min	0.29 nM	16 fold	65 RU	3.61 nM	0.00235 s⁻¹	650000 M⁻¹ s⁻¹	0.31 nM	129 fold	H1M12386N (antibody, V domains shown) VH: QVQLEESGGGVVKAGGSLRLSCVASGFTFSDYYINWIRQAPGKGLEWVSYINNGGYTIYYADSVKGRFTMSRDNAKNSVYLEMNGLRAEDTAFYYCVRDPRSYYGFDYWGQGTLVTVSS VL: DIQMTQSPSSLSASVGDRVTITCRASQSISSYLNWNQQKPGKAPKLLIYVASSLQSGVPSRFSGSGSGTDFTLTISGLQPEDFAPYYCQQSYITPPITFGQGTRLDIK	t1/2 [5]: 5 min; 100 nM Ag Bound (RU) [6]: 170 RU; Kd [6]: 0.685 nM; koff [6]: 0.000631 s⁻¹; kon [6]: 921000 M⁻¹ s⁻¹; t1/2 [6]: 18 min
0.38 nM	61 fold	27 RU	9.36 nM	0.000553 s⁻¹	59100 M⁻¹ s⁻¹	21 min	59 RU	1.76 nM	0.000144 s⁻¹	81800 M⁻¹ s⁻¹	80 min	0.75 nM	4 fold	19 RU	76.7 nM	0.00277 s⁻¹	36200 M⁻¹ s⁻¹	1.4 nM	50 fold	H2M12394N (antibody, V domains shown, also called H2aM12394N) VH: QVQLQESGPGLVKPSETLSLTCTVSGGSISSYYWNWIRQSPGKGLEWIGYTKKRSTNYNPSLRSRVTISEDTSKNQFSLKMSSVTAADTAVYYCAKMGWGSHAFDIWGQGTMVTVSS VL: not shown	t1/2 [5]: 4 min; 100 nM Ag Bound (RU) [6]: 67 RU; Kd [6]: 1.54 nM; koff [6]: 0.000504 s⁻¹; kon [6]: 327000 M⁻¹ s⁻¹; t1/2 [6]: 23 min

Further lines, the binder ahead of its results:

Binder	EC50 [1]	binding ratio at 3.7 nM vs NIH3T3 [1]	100 nM Ag Bound (RU) [2]	Kd [2]	koff [2]	kon [2]	t1/2 [2]	100 nM Ag Bound (RU) [3]	Kd [3]	koff [3]	kon [3]	t1/2 [3]	EC50 [4]	binding ratio at 3.7 nM vs NIH3T3 [4]	100 nM Ag Bound (RU) [5]	Kd [5]	koff [5]	kon [5]	EC50 [7]	binding ratio at 3.7 nM vs NIH3T3 [7]	other results
H1M12388N (antibody, V domains shown) VH: QVQLEESGGGVVKAGGSLRLSCAASGFTFSDYYINWIRQAPGKGLEWVSYINNGGYTIYYADSVKGRFTMSRDNAKNSVYLQMNGLRAEDTAFYYCVRDPRSYYGFDYWGQGTLVTVSS VL: DIQMTQSPSSLSASVGDRVTITCRASQSISRFLHWYQQKPGKAPKLLIYGASSLQSGVPSRFSGSGSGTDFTLTISTLQPEDFATYYCQQSYSTPPITFGQGTRLEIK	0.52 nM	434 fold	59 RU	0.72 nM	0.000587 s⁻¹	815000 M⁻¹ s⁻¹	20 min	131 RU	0.238 nM	0.000173 s⁻¹	728000 M⁻¹ s⁻¹	67 min	0.25 nM	31 fold	60 RU	5.02 nM	0.00327 s⁻¹	651000 M⁻¹ s⁻¹	0.3 nM	284 fold	t1/2 [5]: 4 min; 100 nM Ag Bound (RU) [6]: 158 RU; Kd [6]: 0.863 nM; koff [6]: 0.000887 s⁻¹; kon [6]: 1.03e+06 M⁻¹ s⁻¹; t1/2 [6]: 13 min
H1M12366N (antibody, V domains shown, also called H3M12366N) VH: QVQLQESGPGLVKPSETLSLTCTVSGGSISSYYWNWIRQSPEKGLEWIGYIYISGTTNYNPSLKSRVTISVDTFKNQFSLKLNSVTAADTAVYYCARMGLGREAFDIWGQGTMVTVSS VL: not shown	0.83 nM	310 fold											1.8 nM	7 fold					2 nM	107 fold	
